The text below walks through data of patent US6962971B2, “Chemokines and methods for inducing the differentiation of fibroblasts to myofibroblasts” (The Regents of the University of California, priority 2001, dated 2005).

“Also recorded” adds a separate entry of the source.

One data set relates to CEFs. Nature of the data set: Trypan blue staining for necrotic cells. The format is cell-based. Conditions: cCAF-treated fibroblasts. Here is the method:
The supernatant of treated and untreated CEFs was collected, the cells centrifuged to a pellet and resuspended in a small volume of medium. 1% trypan blue was added to a final concentration of 0.5% trypan blue. Cells were stained for 5min and then counted in a hemocytometer. Necrotic cells stained blue.

Data set [1] concerns fibroblast-seeded collagen gels. Nature of the data set: Collagen gel contraction by fibroblasts. The format is cell-based, chicken. How it is done: 1.5 ml Vitrogen 100 collagen gels were made in 35 mm plates. Secondary fibroblasts were plated at 0.4×10^6 cells/35 mm plate on top of the gels. After the cells had adhered to the collagen, cCAF was added to experimental plates. The medium was replaced approximately every 16 hr with 1 ml of 199 supplemented with 0.3% tryptose phosphate broth and 2% donor calf serum, and 750 ng cCAF [68 nM] or N-peptide [480 nM] was added to the experimental plates. Control plates contained media only. After 4 days, gels were released. Treatment was continued for 2 more days and gels were photographed every 12 hours. The photographs were used for evaluation of gel contraction by determining the area of the gel using NIH image analysis.

Data set [2] relates to Full-thickness excision wounds on the underside of the wings of 2-week-old chicks. The data set is described as follows: Wounding experiment: closure of excision wounds. The format is in vivo, chicken. The following applies: 1 μg every other day. Here is the method: Full-thickness excision wounds (approximately 0.5×0.5 cm) were made, using a scalpel blade, on the underside of the wings of 2-week-old chicks. The left wing was treated with vehicle alone (water), and the right wing with […] cCAF [90 nM]. The wounds were photographed immediately after wounding and then covered with Biocclusive bandage. 50 μl vehicle (water) or cCAF was deposited through the bandage onto the wound using a 30-gauge needle. This procedure was repeated the next day and every other day thereafter. On days 3, 5 and 7, the bandages were removed and the wounds were photographed before replacing the bandages and applying the treatment again.

Data set [3] relates to granulation tissue of excision wounds. Nature of the data set: Histology of excision wounds (Masson Trichrome). The format is in vivo, chicken. The following applies: 1 μg cCAF every other day; versus vehicle. How it is done: (§1) At the specified time points, chickens were euthanized with sodium pentobarbitol. The wounded wings were collected and fixed for 18 hrs in 4% paraformaldehyde and decalcified for 3 days in 5% formic acid, 2.5% formaldehyde at 4° C. The tissue was embedded in paraffin and sectioned. Sections were stained with Masson Trichrome to visualize interstitial collagen. Other sections were immunolabeled for α-SMA. Sections were deparaffinized with 3×15 min washes in Hemo-De and rehydrated in 5 min washes of ethanol (100%, 95%, 70%, 50%, 30%). After rinsing with PBS, sections were fixed in 2% paraformaldehyde 1 hr. General autofluoresence and non-specific staining were blocked by 30 min in 0.1M glycine in PBS, followed by 30 min in 1% Evans Blue in PBS to quench red blood cell autofluorescence. Sections were incubated with α-SMA antibody in 1% BSA in PBS (1:50) for 2 hr at room temperature. After 3×10 min washes in 0.1% BSA in PBS, the sections were incubated for 40 min with anti-mouse Alexa antibody in 1% BSA in PBS (1:200). They were then washed and mounted with Vectashield.

For another data set, the system named is α-SMA. Nature of the data set: Immunostaining for α-SMA in granulation tissue of excision wounds. The format is in vivo, chicken. Conditions: 1 μg cCAF every other day; versus vehicle. Here is the method:
as §1

For data set [4], the system named is chicken CXC receptor 1 (CXCR1). The data set is described as follows: Chicken cCXCR1-mediated calcium release. Conditions: 400 ng. The format is cell-based. Here is the method:
NIH #373 cells overexpressing the chicken CXC receptor 1 (CXCR1) were exposed to the full-length cCAF molecule, the 15-amino N-terminal peptide of cCAF, or the 28-amino acid C-terminal peptide and calcium release was then measured.

B1: cCAF: CXC chemokine chicken Chemotactic and Angiogenic Factor, full-length, SEQ ID NO:2; purified or synthesized (protein)
chain: LSQGRTLVKMGNELRCQCISTHSKFIHPKSIQDVKLTPSGPHCKNVEIIATLKDGREVCLDPTAPWVQLIVKALMAKAQLNSDAPL
modifications: Gallusgallus
notes: purified or synthesized
Take B1: the necrotic cell death entry in the data set on CEFs was “does not stimulate cell necrosis; also recorded: does not cause cells to undergo necrosis”. For the same molecule, the “contraction of collagen gels after release” value in data set [1] (750 ng/ml, 4-5 days treatment before release, versus untreated cells) is recorded as “much greater contraction; also recorded: stimulated fibroblasts to contract collagen gels more efficiently than untreated cells; also recorded: contracted the gels more tightly than did untreated cells”. Also, the “contraction of fibroblast clusters on collagen” value in data set [1] (versus control cells) is “form clusters that are much tighter and generally pull away from the collagen; also recorded: more contracted than clusters in control cells”. Further, the “wound closure at day 3 (days 0-3)” value in data set [2] (topical, versus vehicle (H2O) on contralateral wing) is given as “closed to a significantly greater degree than the vehicle-treated wounds”. Besides, in data set [2] (versus vehicle), the “wound closure at day 5” value is “closure of the control wounds was still less than that of the experimental wounds” and the “wound closure at day 7” value is given as “completely closed”. Also, in data set [3], the “density of granulation tissue, days 3 and 5” value is “denser repair tissue than the control wounds; also recorded: appears more dense earlier in wound healing”; the “granulation tissue at day 7” value is “minimal; also recorded: appear to be already remodeling”. Moreover, in the data set on α-SMA, the “cells labeling for α-SMA in granulation tissue, day 3” value is given as “numerous cells labeling for α-SMA; also recorded: many more cells that label for α-SMA”; the “cells labeling for α-SMA in granulation tissue, day 5” value was “many more myofibroblasts than the control wounds; also recorded: many more cells staining for α-SMA”; the “cells labeling for α-SMA in granulation tissue, day 7” value is given as “continue to have more labeled cells than do control wounds”. The “time to calcium release” value in data set [4] was at most 1 min. For the same molecule, the calcium release entry in data set [4] (NIH #373 cells overexpressing chicken CXCR1) was “induced a rapid (within 1 min.) release of calcium”.
